Experimental data as given in patent US20160290995A1, “METHODS OF SELECTING AKT AGONISTS OR ANTAGONISTS” (OREGON HEALTH & SCIENCE UNIVERSITY, priority 2015, published 2016).

Biological target: PDGF-α receptor, endogenous on C3H10T1/2 mouse embryonic fibroblasts (mouse) (UniProt P26618)
Assay: cell-based or functional assay

Chain of PDGF-α receptor, endogenous on C3H10T1/2 mouse embryonic fibroblasts (mouse) (P26618 25-1089): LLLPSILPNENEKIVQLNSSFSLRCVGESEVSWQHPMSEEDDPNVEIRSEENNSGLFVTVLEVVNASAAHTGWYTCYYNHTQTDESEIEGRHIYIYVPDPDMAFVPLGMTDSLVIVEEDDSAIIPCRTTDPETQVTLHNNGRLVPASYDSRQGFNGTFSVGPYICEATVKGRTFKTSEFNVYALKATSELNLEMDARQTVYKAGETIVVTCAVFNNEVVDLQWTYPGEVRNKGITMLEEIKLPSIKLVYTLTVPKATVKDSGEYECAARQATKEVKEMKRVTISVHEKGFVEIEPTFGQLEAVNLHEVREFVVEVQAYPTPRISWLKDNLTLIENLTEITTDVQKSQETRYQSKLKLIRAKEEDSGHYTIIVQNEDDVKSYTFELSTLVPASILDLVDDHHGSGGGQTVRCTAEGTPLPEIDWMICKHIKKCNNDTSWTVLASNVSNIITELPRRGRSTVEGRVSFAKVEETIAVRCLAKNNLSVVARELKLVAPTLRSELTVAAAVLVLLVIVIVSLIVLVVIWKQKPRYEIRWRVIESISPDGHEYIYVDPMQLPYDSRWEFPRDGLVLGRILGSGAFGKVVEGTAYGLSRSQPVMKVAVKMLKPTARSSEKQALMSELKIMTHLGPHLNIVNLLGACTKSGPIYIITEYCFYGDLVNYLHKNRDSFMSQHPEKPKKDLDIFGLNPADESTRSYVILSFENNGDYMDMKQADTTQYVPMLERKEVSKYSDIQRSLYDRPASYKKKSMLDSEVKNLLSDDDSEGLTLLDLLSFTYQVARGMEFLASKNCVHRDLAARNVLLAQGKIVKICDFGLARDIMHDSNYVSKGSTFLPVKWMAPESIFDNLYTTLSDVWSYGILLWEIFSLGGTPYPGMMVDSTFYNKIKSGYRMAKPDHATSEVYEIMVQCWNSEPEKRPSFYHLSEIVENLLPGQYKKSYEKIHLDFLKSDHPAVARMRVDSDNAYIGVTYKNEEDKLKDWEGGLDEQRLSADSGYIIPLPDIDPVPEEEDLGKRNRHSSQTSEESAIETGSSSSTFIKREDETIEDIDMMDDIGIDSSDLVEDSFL

Substance: neutralizing antibody to the PDGF-α receptor (#AF1062, R&D Systems)
- decrease in responses to sub-maximal concentrations of PDGF-BB (relative nuclear intensity of the FoxO1-clover reporter in C3H10T1/2 cells): 10%
